How the values were obtained:
[1] = system: vascular endothelial cells; test: Vascular endothelial cell adhesion assay; type: cell-based
Source text: Full-length DANCE promotes the adhesion and extension of vascular endothelial cells via cell surface integrin. The present inventor has reported to date that full-length DANCE can serve as a ligand for the integrins αvβ3, αvβ5, and α9β1. Since the domain serving as the ligand is considered to be around the RGD motif of the amino-terminal domain of DANCE, each recombinant protein of a DANCE mutant wherein RGD was replaced with RGE for one-amino-acid substitution (RGE DANCE), and amino-terminal cleaved form of DANCE (ΔND DANCE) were purified, and these, along with full-length DANCE, were subjected to vascular endothelial cell adhesion assay (FIG. 13).

[2] = target: T1, human LTBP2 (Homo sapiens, UniProt Q14767); test: In vitro binding assay, FLAG-tagged DANCE constructs with Myc-tagged LTBP2; details: protein solutions from 293T cells mixed on ice 1 hour, anti-FLAG precipitation, anti-Myc detection
T1 construct: The portion from the 36th amino acid to the stop codon of human LTBP2; expressed in transfected cells; host or cells: 293T cells; culture supernatant mixed with cell extract
T1 sequence (Q14767 36-1821): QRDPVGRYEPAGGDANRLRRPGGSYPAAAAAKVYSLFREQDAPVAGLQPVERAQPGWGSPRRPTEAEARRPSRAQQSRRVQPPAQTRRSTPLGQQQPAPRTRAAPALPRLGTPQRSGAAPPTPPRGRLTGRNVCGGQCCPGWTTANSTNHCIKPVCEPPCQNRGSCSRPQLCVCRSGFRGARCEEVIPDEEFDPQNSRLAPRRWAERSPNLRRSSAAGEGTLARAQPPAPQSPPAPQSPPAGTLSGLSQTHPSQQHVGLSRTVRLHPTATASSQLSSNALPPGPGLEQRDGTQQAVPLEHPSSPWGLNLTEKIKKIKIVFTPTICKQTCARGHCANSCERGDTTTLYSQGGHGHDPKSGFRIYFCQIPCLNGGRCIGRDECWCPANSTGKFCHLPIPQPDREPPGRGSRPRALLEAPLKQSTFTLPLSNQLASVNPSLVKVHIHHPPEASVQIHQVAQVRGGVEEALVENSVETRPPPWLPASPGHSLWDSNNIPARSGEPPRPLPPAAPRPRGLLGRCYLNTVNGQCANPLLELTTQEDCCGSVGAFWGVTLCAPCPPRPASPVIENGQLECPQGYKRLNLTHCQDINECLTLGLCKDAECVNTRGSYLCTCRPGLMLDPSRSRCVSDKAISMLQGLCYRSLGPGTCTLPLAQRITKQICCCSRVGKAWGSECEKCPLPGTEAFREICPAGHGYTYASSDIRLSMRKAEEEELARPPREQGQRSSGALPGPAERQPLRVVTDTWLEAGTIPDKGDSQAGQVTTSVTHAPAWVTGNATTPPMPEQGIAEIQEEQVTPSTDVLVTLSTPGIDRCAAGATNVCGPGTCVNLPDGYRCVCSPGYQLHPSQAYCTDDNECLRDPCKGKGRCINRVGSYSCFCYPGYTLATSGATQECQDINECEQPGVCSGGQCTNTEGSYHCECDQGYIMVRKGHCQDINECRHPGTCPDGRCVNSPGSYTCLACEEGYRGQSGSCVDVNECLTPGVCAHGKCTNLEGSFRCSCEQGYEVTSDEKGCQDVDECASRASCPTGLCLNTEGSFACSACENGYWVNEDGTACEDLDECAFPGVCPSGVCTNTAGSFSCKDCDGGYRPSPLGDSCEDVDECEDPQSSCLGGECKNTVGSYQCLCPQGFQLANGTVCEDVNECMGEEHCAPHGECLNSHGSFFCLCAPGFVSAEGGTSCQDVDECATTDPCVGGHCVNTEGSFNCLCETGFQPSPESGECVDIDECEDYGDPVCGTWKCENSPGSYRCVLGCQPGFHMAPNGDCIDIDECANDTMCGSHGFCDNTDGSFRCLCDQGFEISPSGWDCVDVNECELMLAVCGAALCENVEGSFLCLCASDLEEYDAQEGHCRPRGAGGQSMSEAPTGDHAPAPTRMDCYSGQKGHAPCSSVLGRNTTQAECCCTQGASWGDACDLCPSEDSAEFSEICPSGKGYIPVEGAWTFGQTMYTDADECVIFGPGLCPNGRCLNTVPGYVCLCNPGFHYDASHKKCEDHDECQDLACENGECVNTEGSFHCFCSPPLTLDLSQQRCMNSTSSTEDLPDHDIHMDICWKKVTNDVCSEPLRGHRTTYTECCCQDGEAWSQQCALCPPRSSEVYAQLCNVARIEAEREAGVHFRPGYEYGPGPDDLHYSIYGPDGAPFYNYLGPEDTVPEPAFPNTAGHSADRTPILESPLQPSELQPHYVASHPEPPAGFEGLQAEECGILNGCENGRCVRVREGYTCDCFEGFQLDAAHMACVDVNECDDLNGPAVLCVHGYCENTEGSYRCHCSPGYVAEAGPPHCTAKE
Experimental: (§1) These were performed by methods described in “Molecular Cloning, 3rd Ed.”.
(§2) A human DANCE construct with FLAG tag (FIG. 8), a human DANCE construct with Myc tag, and a human LTBP2 construct were separately transfected to 293T cells. After cultivation in serum-free medium for 48 hours, each culture supernatant and cell extract were mixed, and this was used as the protein solution. A protein solution from the DANCE construct with FLAG tag and a protein solution from DANCE or LTBP2 with Myc tag were mixed on ice for 1 hour, and precipitated with anti-FLAG antibody, and the resulting precipitate was developed by SDS-PAGE, and detected using anti-Myc antibody or anti-FLAG antibody.

[3] = target: T2, human DANCE (Homo sapiens, UniProt Q9UBX5); test: In vitro binding assay, FLAG-tagged DANCE constructs with Myc-tagged DANCE; details: protein solutions from 293T cells mixed on ice 1 hour, anti-FLAG precipitation, anti-Myc detection
T2 construct: Myc; expressed in transfected cells; host or cells: 293T cells; culture supernatant mixed with cell extract
T2 sequence (Q9UBX5 24-448): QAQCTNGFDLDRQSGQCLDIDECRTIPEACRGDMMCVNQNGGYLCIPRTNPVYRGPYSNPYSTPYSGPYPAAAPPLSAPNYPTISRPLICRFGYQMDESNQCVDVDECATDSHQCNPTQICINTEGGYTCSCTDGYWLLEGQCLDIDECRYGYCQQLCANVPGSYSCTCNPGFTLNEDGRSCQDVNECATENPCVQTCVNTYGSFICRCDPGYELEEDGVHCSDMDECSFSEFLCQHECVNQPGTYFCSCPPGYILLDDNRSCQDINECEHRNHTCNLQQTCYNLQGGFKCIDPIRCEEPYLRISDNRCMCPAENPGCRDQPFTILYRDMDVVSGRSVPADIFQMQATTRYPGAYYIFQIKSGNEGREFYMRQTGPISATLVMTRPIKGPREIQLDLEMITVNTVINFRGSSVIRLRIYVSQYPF
Experimental: as §1, §2

[4] = system: human skin fibroblasts; test: Formation of elastic fibers in cultured human skin fibroblasts; type: cell-based; details: protein added to serum-free medium at 4 μg/ml, cultured for 2 weeks
Experimental: Human fibroblasts were kindly supplied by the Department of Plastic Surgery, Kyoto University Hospital. A cover glass was placed on the bottom of a 24-well plate, on which human fibroblasts were seeded at 7.5×10^4 cells per well, and cultured in a DMEM medium supplemented with 10% FBS at 37° C. in the presence of 5% CO2. After the plate washed with PBS on Day 3, the medium was exchanged with a DMEM/F12 medium not supplemented with FBS, and purified DANCE protein, cleaved form of DANCE protein 4 μg/ml, or FBS was added. Cultivation was continued at 37° C. in the presence of 5% CO2, and the cells were fixed and immunologically stained on Day 14.
On Day 14 of cultivation, the cells were washed with 1 ml of PBS three times, after which they were fixed with 100% methanol at −20° C. for 30 minutes. After washing with PBS, the cells were subjected to blocking with a PBS containing 2% BSA at room temperature for 30 minutes, after which the cells were incubated with the polyclonal anti-elastin antibody (dilution rate 1/100) and the monoclonal anti-FLAG antibody (dilution rate 1/100) at room temperature for at least 1 hour. The cells were washed with PBS and further incubated with the anti-rabbit Alexa Fluor 488 antibody (dilution rate 1/100) and the anti-mouse Alexa Fluor 546 antibody (dilution rate 1/100) at room temperature for 1 hour. After washing with PBS, the cells were fixed with 4% para-formaldehyde at room temperature for 10 minutes and again washed with PBS, after which the sample was mounted onto a glass slide using a DAPI-containing Vectashield. Examination was performed using a confocal microscope.
Human skin fibroblasts were seeded to reach confluency; the medium was replaced with serum-free medium or a medium containing 10% fetal calf serum; the cells were cultured for 2 weeks; the formation of elastic fibers was analyzed by immunostaining with anti-elastin antibody.

B1: ΔND DANCE: amino-terminal cleaved form of DANCE; 78th to 448th amino acids of SEQ ID NO:2 (SEQ ID NO:8) (protein, listed as Homo sapiens)
chain: GPYSNPYSTPYSGPYPAAAPPLSAPNYPTISRPLICRFGYQMDESNQCVDVDECATDSHQCNPTQICINTEGGYTCSCTDGYWLLEGQCLDIDECRYGYCQQLCANVPGSYSCTCNPGFTLNEDGRSCQDVNECATENPCVQTCVNTYGSFICRCDPGYELEEDGVHCSDMDECSFSEFLCQHECVNQPGTYFCSCPPGYILLDDNRSCQDINECEHRNHTCNLQQTCYNLQGGFKCIDPIRCEEPYLRISDNRCMCPAENPGCRDQPFTILYRDMDVVSGRSVPADIFQMQATTRYPGAYYIFQIKSGNEGREFYMRQTGPISATLVMTRPIKGPREIQLDLEMITVNTVINFRGSSVIRLRIYVSQYPF
[1]; discussion statement
  binding to cell surface integrin: no longer binds to cell surface integrin
[1]; purified recombinant protein used for coating
  cell adhesion activity: absolutely no cell adhesion activity
[2]
  binding of DANCE to LTBP2: stronger binding with LTBP2 than full-length DANCE
[3]
  binding of DANCE to each other: no longer binds to each other
[4]
  formation of elastic fibers (anti-elastin immunostaining): the formation of elastic fibers was very little

Reference: patent US7906616B2, “Truncated DANCE, DANCE complex and method of using these” (Kansai Medical University, priority 2004, dated 2011)
